Test results: patent US20180271960A1, “METHOD TO TREAT CANCER USING ARGININE DELPETOR AND ORNITHINE DECARBOXYLASE (ODC) INHIBITOR” (Bio-Cancer Treatment International Ltd., priority 2015, published 2018)
“Also recorded” adds a separate entry of the source.

Columns and labels:
[1] = system: CAPAN-1 pancreatic cancer xenograft; assay: CAPAN-1 pancreatic cancer xenograft model; assay type: in vivo, mouse; conditions: CAPAN-1 xenograft; PEG-BCT-100 20 mg/kg IV twice a week; DFMO 2% w/v in drinking water
Protocol: (§1) In one example embodiment, the CAPAN-1 tumour cells are maintained in vitro culture in EMEM medium supplemented with 10% heat inactivated fetal bovine serum at 37° C. in an atmosphere of 5% CO2 in air. The tumour cells are routinely sub-cultured twice weekly. The cells growing in an exponential growth phase are harvested and counted for tumour inoculation.
Each mouse is inoculated subcutaneously at the right flank region with CAPAN-1 tumour cells (5×10^6) in 0.1 ml of PBS (1:1 Matrigel) for tumour development. The treatments start when the mean tumour size reaches 119 mm^3. The date of tumour cell inoculation is denoted as day 0.
(§2) Four treatment groups of animals, with eight animals in each group, are tested. Control group (negative control) receives physiological saline, and the three treatment groups respectively receive 20 mg/kg of PEG-BCT-100 alone, 2% w/v DFMO in drinking water, and combination of 20 mg/kg of PEG-BCT-100 and 2% w/v DFMO. PEG-BCT-100 is administered intravenously, twice a week, until euthanization while DFMO is supplied in drinking water at 2% w/v.

[2] = system: Hep G2 hepatocellular carcinoma xenograft; assay: Hep G2 hepatocellular carcinoma xenograft model; assay type: in vivo, mouse; conditions: PEG-BCT-100 20 mg/kg IV twice a week, DFMO 2% w/v in drinking water
Protocol: as §1, with “Hep G2 human liver cancer” for “CAPAN-1 tumour”, “RPMI1640” for “EMEM”, “10%” for “10% heat inactivated”, “cells” for “cells growing”
Each mouse is inoculated subcutaneously at the right flank region with Hep G2 tumour cells (1×10^7) in 0.2 ml of PBS (1:1 Matrigel) for tumour development. The treatments start when the mean tumour volume reaches 124 mm^3. The date of tumour cell inoculation is denoted as day 0.
as §2

[3] = system: MIA-PaCa-2 pancreatic cancer xenograft; assay: MIA-PaCa-2 pancreatic cancer xenograft model; assay type: in vivo, mouse; conditions: MIA-PaCa-2 xenograft; PEG-BCT-100 20 mg/kg IV twice a week; DFMO 2% w/v in drinking water
Protocol: as §1, with “MIA-PaCa-2” for “CAPAN-1”
Each mouse is inoculated subcutaneously at the right flank region with MIA-PaCa-2 tumour cells (5×10^6) in 0.1 ml of PBS (1:1 Matrigel) for tumour development. The treatments start when the mean tumour size reaches 124 mm^3. The date of tumour cell inoculation was denoted as day 0.
as §2

[4] = system: H1975 lung adenocarcinoma xenografts; assay: H1975 lung adenocarcinoma xenograft; assay type: in vivo, BALB/c nude mice; conditions: for median survival: PEG-BCT-100 20 mg/kg IP twice a week
Protocol: In one example embodiment, ten million lung adenocarcinoma cells from cell lines H1650, H1975, and HCC4006 are engrafted subcutaneously in BALB/cnude mice (4 weeks old with body weight of 10-14 g). Body weight, clinical signs and survival times are recorded.
Two groups of the mice, with eight mice in each group, are tested. Control group (negative control) receives physiological saline and treatment group receives 20 mg/kg of PEG-BCT-100. PEG-BCT-100 is administered via intraperitoneal (IP) injection, twice weekly, until euthanization.
In one example embodiment, ten million lung adenocarcinoma cells from cell lines H1650, H1975 and HCC4006 are engrafted subcutaneously in BALB/cnude mice (4 weeks old with body weight of 10-14 g). Body weight, clinical signs and survival times are recorded.
as §2, with “Four” for “Four treatment”, “the mice,” for “animals,”, “mice” for “animals”, “intraperitoneally,” for “intravenously,”

[5] = system: SU-DHL-10 B cell lymphoma xenograft; assay: SU-DHL-10 B cell lymphoma xenograft model; assay type: in vivo, mouse; conditions: SU-DHL-10 xenograft; PEG-BCT-100 20 mg/kg IV twice a week; DFMO 2% w/v in drinking water
Protocol: as §1, with “SU-DHL-10 human lymphoma” for “the CAPAN-1 tumour”, “RPMI1640” for “EMEM”, “20%” for “10% heat inactivated”, “cells” for “cells growing”
One day before tumour inoculation, all mice are sub-lethally irradiated with 60Co (200 rad). Each mouse is inoculated subcutaneously at the right flank region with SU-DHL-10 tumour cells (1×10^7) in 0.1 ml of PBS/Matrigel (1:1) for tumour development. The treatments start when the mean tumour volume reached 116 mm^3. The date of tumour cell inoculation is denoted as day 0.
as §2, with “saline,” for “saline, and the three treatment groups respectively receive”

[6] = system: H358 lung adenocarcinoma cell line; assay: MTT assay, growth inhibition of H358 cell line; assay type: cell-based; conditions: 48 h and 72 h at 10 ng/μl
Protocol: (§3) The inhibition ratio (IR) and the half maximal inhibitory concentration (IC50) values are determined by a MTT assay.

[7] = system: HCC4006 lung adenocarcinoma cell line; assay: MTT assay, growth inhibition of HCC4006 cell line; assay type: cell-based; conditions: 48 h and 72 h at 0.5 ng/μl and 10 ng/μl
Protocol: as §3

[8] = system: HCC827 lung adenocarcinoma cell line; assay: MTT assay, growth inhibition of HCC827 cell line; assay type: cell-based; conditions: 48 h and 72 h at 0.5 ng/μl and 10 ng/μl
Protocol: as §3

[9] = system: lung adenocarcinoma cell lines (H23, H358, HCC827, H1650, H1975, HCC2935, HCC4006, and A549); assay: MTT assay on the panel of eight lung adenocarcinoma cell lines; assay type: cell-based; conditions: all tested cell lines; MTT assay after treatment for 72 h
Protocol: as §3

[10] = system: H23 lung adenocarcinoma cell line; assay: MTT assay, growth inhibition of H23 cell line; assay type: cell-based; conditions: 48 h and 72 h at 0.5 ng/μl and 10 ng/μl
Protocol: as §3

Molecule	anti-tumour effect [1]	anti-tumour effect [2]	anti-tumour effect [3]	median survival ([4]; DFMO 2% w/v in drinking water) [days]	anti-tumour effect [5]	growth inhibition effect (cell proliferation) [6]	growth inhibition effect (cell proliferation) [7]	growth inhibition effect (cell proliferation) [8]	cytotoxicity (cell viability) [9]	growth inhibition effect (cell proliferation) [10]	tumour growth ([4]; PEG-BCT-100 20 mg/kg IP twice weekly, DFMO 2% w/v in drinking water, 20 mg/kg)	in vivo ASS1 expression (Western blot) ([4]; PEG-BCT-100 20 mg/kg vs control arm)	in vivo ODC expression (Western blot) ([4]; PEG-BCT-100 20 mg/kg vs control arm, 20 mg/kg)
NCCC[C@](N)(C(=O)O)C(F)F [DFMO, α-difluoromethylornithine, reference compound]	no significant anti-tumour effect	significant anti-tumour effect	significant anti-tumour effect	18	no significant anti-tumour effect	–	–	–	–	–	–	–	–
PEG-BCT-100: pegylated recombinant human arginase I (SEQ ID NO.1, or SEQ ID NO.3 with six histidines), about 6-12 PEG molecules per arginase (protein, UniProt P05089 1-322, looked up, PEG, about 6-12 per arginase; optional His6 tag) Arginase-1: MSAKSRTIGIIGAPFSKGQPRGGVEEGPTVLRKAGLLEKLKEQECDVKDYGDLPFADIPNDSPFQIVKNPRSVGKASEQLAGKVAEVKKNGRISLVLGGDHSLAIGSISGHARVHPDLGVIWVDAHTDINTPLTTTSGNLHGQPVSFLLKELKGKIPDVPGFSWVTPCISAKDIVYIGLRDVDPGEHYILKTLGIKYFSMTEVDRLGIGKVMEETLSYLLGRKKRPIHLSFDVDGLDPSFTPATGTPVVGGLTYREGLYITEEIYKTGLLSGLDIMEVNPSLGKTPEEVTRTVNTAVAITLACFGLAREGNHKPIDYLNPPK	no significant anti-tumour effect	–	do not produce a significant anti-tumour effect	15	slightly promotes SU-DHL-10 tumour growth	inhibits H358 lung adenocarcinoma cell line proliferation more effectively than ADI	inhibits HCC4006 lung adenocarcinoma cell line proliferation more effectively than ADI	inhibits HCC827 lung adenocarcinoma cell line proliferation more effectively than ADI	induces cytotoxicity in all tested lung adenocarcinoma cell lines	inhibits H23 lung adenocarcinoma cell line proliferation more effectively than ADI	induces lung adenocarcinoma proliferation; also recorded: promotes tumour growth	decreases	increases; also recorded: over-expressed; also recorded: upregulated
